Experimental findings from a protein production outcome set (Wang et al. 2014) are described below.

A short description of the data set: label from the status in PepcDB records.

With “MLRIFIPTSNGKISRRRYIFSFILINFIFAFLIIFFNDGEAGFLVIVSTIVLHYLVINMNCQRLRDSGFIYIKTYVFGTLAVYIISIITMIAEDFACSGNGSMIFLICYFSTFSMLMLAPTDSSKQ”, the protein production entry was “failed”. Next, “MLRLYKTIGRFNLINFQEDYPMKILVVGTGAREHAICSALADEATIYSVMGNRNPGISRLAGNSLLLLKLTPKVVRFASEKGVDMAFIGPEAHLEAGLVDALEEAGIPSVGPTRDAARIETDKSFMRKLFEDYRIPGSITYRVFSDPEELREFMEDFDSEAVVKPVGLTGGKGVKIVGEHLRDNMEALKYATEVIEKRIGGHPSVVIEERVVGEEFTVQAFSDGEHIVPMPAVQDHPHAYEGDQGPITGGMGSYSDSDGLLPFLTQKDYEDAVEIMQRTVDAIRKETGPYRGILYGQFMLSADGPKLIEYNARFGDPEAMNVLPLLESSMLEICEGIVDGNLKSASFMNLATVCKYLVPEGYPESGVAGAEIKVDEKKIEDMGVITYYAAVNQEDDHIYTSSSRALALVAPADDIYSAEELCEEATAHVKGRLYHRRDIGTRELVEKRIKHMEDLRS”: “failed”; “MLRNIIRFKGFGKGTSGGFLKPVSFRVQLTRCYRYDNGPSYRRFNNGEYSQKSSFKSILLDKSSRKYLALLFGGCSLFYYTHLDKAPVSDRSRFIWVSRPLELTIGNYTYKSIWRQTQQEILPPQHPLSIKIENIFMKIVEAAYKDPSVDNSLLDGIKWEIHVVNDPTASPNAFVLPGGKVFIFSSILPICANDDGIATVLAHEFAHQLARHTAENLSKAPIYSLLGLVLYTVTGAHAINNILLDGFLRMPASRQMETEADYIGLMIMSRACFQPQESIKVWERMANFEKQMNRGGVVNMEFLSTHPASTRRIENMSKWLPKANEIYEQSDCSSMGNYYKSFFSM”: “failed”; “MLRPRTIKEGSVGLFALLGLFIIGGIVLWLRGGAFGNPGYEVLVQFDDASGLQVGGAVRYRGVPVGRVAKLIPGSNGILAQLEISSTQLRIPADVQVEISRYGLLGEAAIDMIPDRQLSEAALAIDPLSADCAESDKILCDGDELEGQAGTQLTNSMARLAQAYSEPEFVADINATVKSANLAAARIAAMSAEITALSKTANQQVRGFERTSEAIAKAADNASLLTSRVDQVVQTNQGYINRTIEEASLLMVNLNQLVGENRAQFNLTLKSIETTNRDLQAIGQEIQTAVGTINHGLAAIDTQKVTNDLALLMENAAVTSNNIRQISNDLNDPTLMLTLQQTLDAARLTFENAQKITSDVEQLTGDPAFRNNLRKLVDGLGQLVSSTENLQDRVYTAHTLERSGQQLRFQLDHQQQLALYYEQWGVINPVPASGSPSPQIQTPKIKPPQPKENQGK”: “failed”. As to “MLRPSVSLAFASSLPQQSVASRAVQRSPLPRRASGHGATEARGMPSHCFIRFCCIVLLAITGCSPAAQSRYAPERNFSDPKALALALAAEQGDAEEVRRLMKVEGVNPDTIFSKDGYPLLFWPIFTHSPAGLKAMLDNGADPNVALPYQTLDRGVRNNPNAMVWAAEQDDPIYLKMLLDHGGNPNTRNANNESLLFHAFIKQNKWDNIKLLVERGADINAVAGMGNSITAAYAIRGGFDFVYWLLQHGADPTIEFAYGNPVHLKDSGIIEAIFWHPGNPKDPQWQRQCQQWLLKRGYERPPLPENYRSMRKAFHFPSEEKEIPLL”, the protein production result is on record as “failed”. As for “MLRRALEEAIAQALKEMGVPVRLKVARAPKDKPGDYGVPLFALAKELRKPPQAIAQELKDRLPLPEFVEEAVPVGGYLNFRLRTEALLREALRPKAPFPRRPGVVLVEHTSVNPNKELHVGHLRNIALGDAIARILAYAGREVLVLNYIDDTGRQAAETLFALRHYGLTWDGKEKYDHFAGRAYVRLHQDPEYERLQPAIEEVLHALERGELREEVNRILLAQMATMHALNARYDLLVWESDIVRAGLLQKALALLEQSPHVFRPREGKYAGALVMDASPVIPGLEDPFFVLLRSNGTATYYAKDIAFQFWKMGILEGLRFRPYENPYYPGLRTSAPEGEAYTPKAEETINVVDVRQSHPQALVRAALALAGYPALAEKAHHLAYETVLLEGRQMSGRKGLAVSVDEVLEEATRRARAIVEEKNPDHPDKEEAARMVALGAIRFSMVKTEPKKQIDFRYQEALSFEGDTGPYVQYAHARAHSILRKAGEWGAPDLSQATPYERALALDLLDFEEAVLEAAEERTPHVLAQYLLDLAASWNAYYNARENGQPATPVLTAPEGLRELRLSLVQSLQRTLATGLDLLGIPAPEVM”, the protein production result is recorded as “not failed”. As for “MLRSLRLAALLGSLLMAVAASARDIDAASYGYPLTNPFEATIATTPPDKRPELPSDDEITQSDYSLNLRPEREFTLPDNFWAVKKLKYRLARQDHEAPLIFIIAGTGAPYSSSINEYLKKLFYQAGFHVVQLSSPTSYDFMSAASRFATPGISQEDAEDMYRVMQAVRAQHPRLPVSDFYLTGYSLGALDAAFVSHLDETRRSFNFKRVLLLNPPVNLYTSINNLDKLVQTQVKGIDRSTTFYELMLEKLTRYFQDKGYIDLNDALLYDFQQSRQHLSNEQMAMLIGTSFRFSAADIAFTSDLINRRGLIIPPKFPITEGSSLTPFFKRALQCDFDCYMTEQVIPMWRARTDGNSILQLVNQVSLYALEDYLRSSDKIAVMHNADDVILGPGDIGFLRKVFGERLTLYPHGGHCGNLNYRVNSDAMLEFFRG”, the protein production result is recorded as “failed”.

As to “MLRVTPILLAVLYAFAMYHFSAWRTRRELDARSTELADPALKRLTDRLAAALGVARVPVHIYEIDPVNGLAAPDGRIFITRGFYRKYQSGEVTGEELTSVIAHELGHVALGHSRRRMIDFSGQNAMRTALAMLLGRFIPFFGVWIANMLTTLLAARLSRADEYEADAYAAALLTKAGIGVAPQKALFHKLDALTEQRAGVAPAWLLSHPKTAERIAALDRLEARWQAH”, the protein production result is “failed”. The same measure for “MLRYILLKIDIGKEGTDMAAIQAKNGPTEKLSLFLLTWPIFLEVFLFMLMGIADTFMLSALSDDAVSGVGAANQYLHIAILVLEVIGNGAAIVVSQYLGSKRFMEASKISALAVTLNLIVGLVISTGFLLFSKHMMLAMNLQGDVLTYAQNYLSIVGGAIFLQAIINSLAAIIRVHGFTKQAMFISLGMNMIHIAGNYVLIFGKFGFPELGVQGAAISSAVSRLIALIVFFWLLYRVMEYRVKLQYYFTLSKEYIGKILKIGIPSAFEQVMYQACQIVFLYYATYLGTESLAARQYATNISMFTYLFAIAIGMGTAIIIGRLVGGGEKDEAYERLWKSVKWAIGVTLCMVALVITFRTQLMGLFTDNPYIIGLGASVLLLSVLLETGRTMNIVIINSLRAAGDAKYPVLIGAFSMVLMSLPLGYFFAFHLDMGLVGIWLAIAIDEWTRAIIMFFRWKSRAWERYALVKPEEQEENVSVQVQ”: “failed”; for “MLSFILSIFPIVLLIYLMVKRNALPSYVALPWVATLVMGVHLLHFNTDIVTISANVVSAIIAVQTPITVIFGAILFNRFSEISGATNIMRKWLGNINPNPVAQLMIIGWAFAFMIEGASGFGTPAAIAAPILVGLGFHPLKVAMLALIMNSVPVSFGAVGTPTWFGFGALKLSEDMILEIGSITAFIHSIAALIIPLLALRILVNWDDIRKNIVFIYISVLGCVVPYFLIAQVNYEFPSLVGGAIGLFISVWAANRNIGLAKVTNTLDNNAVSAGEVVKALFPTGLLIAFLIVTRIHQLPFKAMMNDATIWFSTTLGSLGLFEISKGLIFSLKNIFGSNVSSSYKLLYVPALIPFVITVLIAIPFFKISSSNVKQILVSSLQQSKNPFIALIGALVMVNLMLVGGEHSMVKIIGRTFAEISGSNWTIFSSFLGAIGSFFSGSNTVSNLTFGSVQLSTAETTGISVALVLALQSVGGAMGNMVCINNIVAVSSVLNISNQEGTIIKKTIIPMIIYGIIAALGALFLVPLFYNL”: “failed”.

As to “MLSGVGAPVGKQMLAGTEVAAMQINKAGGLLGREVELVIRDDKYNSSESVAVARELAGDGINLLLGGSQTVTALGLAPLAPELNMAVMIVAAAGMPVTHELFNPNIFRATANNYTQYSSLGRVLIEQNPDVRTWVSLAPDGDFGRDSALFFGKAVEKYAPGEKPTVLDTIYTQATATDFRTQINQLMSSDAEGLYIGIAASAQISFFQQARSVGLYDKFKAIGEVGNGDITGKAMGRNTHPNLWSVCHWIYNAEPFASNPVSKQLYEDYVTLKGDEMPSAQVAAGHRAAMAIFEGIRAAGSTETEAVLAAIEDVEFETVGGPVSFRKEDHQLVNTNYYSQMGPSREEPFFAFNKVVSIDAAEMIEPATPGKAFDISELPQLEHHHHHH”, the protein production entry was “failed”. For the sequence “MLSKHYKLKFPGTLAMKGGYLFVFLAAVMWGTLGIFAKFLYGFNLSTYTIVFYRVLFALIFLAVYLKVRGLPLLMSKDRLPFYLGFSFFSIFLFYSLYFYTVKISSVSFAVLMLYTAPVYSLIFGRILFGEKLTPSKLTAVFLVILGVLLLNLDGKLNVSKLALLTGLASGLTYSLYGVFVKFAVRREEPERVLFNVLLIGLLFLLPVTDLRVPTAALPYLLGLAFFPTFLGYILYNTALKTVEVSKASIIATIEPVVAIILAYFIFGEALSLLQYLGASLIIAGAILAKR”, the protein production entry was “failed”.

Take “MLSMIGLVGGLVLLIVLTLRGMNLFISAPLCAVIVALCSGVPLLTGDVNFVSAYMDGFASFVAAWFFMFLLGSMFGKFMEDTGAADSVARWIINKLGRKQAVLAVVLACAILTYGGVSVFVVAFSVYPMALSLFKDANLPRRFIPAALAFGSVTFTMTSAGSPEIQNWIPVKYLGTSPYAAWEVSLVVAVLMATFGYWWLRKIINRAIANGEKFEAREGDPILLERKLPSPISGLIPLLVVLGLSFTFHDTLQQNALIVALLGGVIAIAVINFKHFHKPQTAIHEATTGALVAIGNTAAVVGFGSIAKITPAFDAAVTAMTSLPGNELVGAAVAVSVIAGLTGSASGGQAIALPEVGPHYMAAGVNPEQLHRIVSISSGALDSLPHNGYVVTTIRAICNEKHSAAYWAVAAVTVVVPLMGLAVAIGLFML”: the protein production result was “failed”.

Consider “MLSMLALGSEKLMMGNNFPGSGVCFVYTDFGIPEYYRIIVLGLIALVGIKEMLLTSRKEDHFSIDSIDIGIFPLLICFVANFLFAGLEIIFTGLSP”, for which the protein production result is “failed”. The same measure for “MLSQTLLEMTEQMIEVAEKGADRYQEGKNSNHSYDFFETIKPAVEENDELAARWAEGALELIKVRRPKYVHKEQIEAVKDNFLELVLQSYVHHIHKKRFKDITESVLYTLHAVKDEIAREDSRLEHHHHHH”: “not failed”.

“MLSRIDLYIKHRDIFLKHLELLHKLIEKVEDSSLNESELLNARLVDDMFPFNVQAKIATNFALRACCPLSGKEYKELEGDIDSFCGLKTYVVTAIDYINKLSEPTLEQLNLNVQDTAGFKEISMPASEYMSSFVLPNFFFHISMVYAIAKNNGVSVTKGDFDGIHQYPKGFSWEA”: the protein production result is listed as “not failed”. For “MLSRILEKYRENGIQGIVLALISRFPGVRAVCVYYVYRLPFDKLVRKQLSVGNLKVVQVKSDSMGDLIRVQDKPDIFGERFQMGHYGFVAYVNNDPVAYLWGQEGPVHVERRFGFEVPIKDNQVFYYDSYTIPEWRKSGVGRALIQESIDFFKNGLGKSELIAIIETGNLVSQKTYERMGFVREAMHIHLDIIGKKINKQLARMVTQ”, the protein production entry is recorded as “failed”.

Turning to “MLSTNKFAVLAFATFVAFQAPAHAEDAVVAKVGNLEIHQSELDLAVANLDPQLAQLPDDQKKVAALSAAIDVKLLAAGATTEKLEQTDEFKKRMQYLTDRELHNAYFKKHVVDTVTPDEIKARYDKEVAALPKQEEVHARHILVKTEDEAKDIIKQLDAGKDFAELAKEKSTDPNKSEGGDLGYFSRGRMVKEFEDAAFALEKGAYSKTPVKTDFGYHVIKVEDKRDAPPPPFDQVQDQVRQLVMRDKYLALLNQAKSSAKIEISDETLRKGYDEANKQPEPGSEPPQPAPKQ”, the protein production entry is “failed”.
